Results as given in patent CN111690066A.

Columns and labels:
[1] = molecular target: 自产IL-4Rα重组蛋白 (in-house human recombinant IL-4Rα, residues 26-232 of NP_000409.1, expressed in 293F cells) (human) (UniProt P24394); experiment: indirect ELISA
[2] = molecular target: 近岸购买的IL-4Rα重组蛋白 (IL-4Rα, Novoprotein, Cat#CS33) (human) (UniProt P24394); experiment: indirect ELISA
[3] = molecular target: IL-4Rα on TF-1 cells (human) (UniProt P24394); experiment: cell-based or functional assay

EC50 [1]: 0.25 nM | EC50 [2]: 0.25 nM | EC50 of neutralisation of IL-4-induced TF-1 cell proliferation [3]: 0.18 nM | EC50 of neutralisation of IL-13-induced TF-1 cell proliferation [3]: 0.073 nM
Substance: Tab1 (dupilumab) (antibody)
